The values that follow come from patent publication US20200150131A1.

Assay [1] deals with CML conjugated to KLH (CML-KLH). Nature of the assay: direct binding ELISA, CML-KLH coat 1 ug/mL, antibody at 50 ug/mL. (An ELISA detects its analyte on a solid surface through an enzyme-linked reagent.)
Assay [2] has the same target. Nature of the assay: direct binding ELISA, CML-KLH coat 1 ug/mL, antibody at 0.07 ug/mL.
Assay [3] has the same target. The assay is described as follows: direct binding ELISA, CML-KLH coat 1 ug/mL, antibody at 0.21 ug/mL.
Assay [4] has the same target. Nature of the assay: direct binding ELISA, CML-KLH coat 1 ug/mL, antibody at 0.62 ug/mL.
Assay [5] shares this target. Nature of the assay: direct binding ELISA, CML-KLH coat 1 ug/mL, antibody at 1.85 ug/mL.
Assay [6] shares this target. Nature of the assay: direct binding ELISA, CML-KLH coat 1 ug/mL, antibody at 5.56 ug/mL.
The target is the same in assay [7]. Nature of the assay: direct binding ELISA, CML-KLH coat 1 ug/mL, antibody at 16.67 ug/mL.

As for “anti-carboxymethyl lysine (CML) antibody (R&D Systems, MAB3247)”, the OD450 in assay [1] stood at 0.462 OD450; in assay [2], 0.086 OD450; in assay [3] it was 0.075 OD450; in assay [4] it was 0.083 OD450; in assay [5] it was 0.092 OD450; in assay [6], 0.165 OD450. This substance came in with an OD450 in assay [7] of 0.312 OD450.
